Data taken from the RNAGym collection of RNA variant scans (doi:10.7554/elife.80360).

B1: Hairpin Ribozyme (parent)
chain: GUCCUCUUUCACGUGCGCGUGAAAGAGAGAAGUGAACCAGAGAAACACACGUUGUGGUAUAUUACCUGGUA

Variants of: B1
Assay: self-cleavage, relative activity (ratio to wild type); higher = more cleavage; co-transcriptional

Row | Variant | self-cleavage
1 | A23U A44U | 0.15
2 | A23U A44G | 0.248
3 | A22U G32C | 0.123
4 | A22U G32U | 0.0918
5 | A23U A47G | 0.11
6 | A23U A47U | 0.105
7 | A23C G27U | 0.253
8 | A24C A41G | 0.846
9 | A23G G57A | 0.19
10 | A23G G57C | 0.177
11 | A23C A41G | 0.928
12 | A23C U60A | 0.744
13 | A23C U60C | 0.921
14 | A22U A59U | 0.143
15 | A22U A71G | 0.791
16 | A22U A71U | 0.747
17 | A23U C37G | 0.438
18 | A23G A31C | 0.194
19 | A22U A64C | 0.113
20 | A23C G68C | 0.138
21 | A23C G68U | 0.262
22 | A23G C38U | 0.43
23 | A23G C38A | 0.239
24 | A22U A24U | 0.554

Row | Variant | self-cleavage
25 | A22U A24C | 0.71
26 | A23U A39C | 0.483
27 | A24C G69C | 0.218
28 | A24C G69A | 0.484
29 | A22U U58C | 1.04
30 | A22U G56U | 0.063
31 | A22U G56C | 0.214
32 | A24C C50A | 0.103
33 | A24C C50U | 0.418
34 | A23G U58G | 0.657
35 | A22G U62C | 0.276
36 | A24C C38U | 0.5
37 | A24C C38G | 0.186
38 | A23G G27A | 0.496
39 | A24G G27C | 0.171
40 | A24C U58C | 1.11
41 | A22U U60A | 0.77
42 | A23G U67A | 0.105
43 | A23G U67C | 0.218
44 | A22U G25C | 0.143
45 | A22U G25A | 0.149
46 | A23U A43U | 0.123
47 | A23G G40U | 0.278
48 | A23G G40A | 0.234

Row | Variant | self-cleavage
49 | A22U C66A | 0.209
50 | A22U C66G | 0.175
51 | A24G C66G | 0.226
52 | A22U G34U | 1.21
53 | A22U G34C | 0.996
54 | A23U G42U | 0.246
55 | A23U G42C | 0.259
56 | A23C U55C | 0.184
57 | A24G A30G | 0.0908
58 | A24C A59G | 0.0535
59 | A23U C50A | 0.277
60 | A23U C50G | 0.239
61 | A22U G68C | 0.252
62 | A23U U70A | 0.729
63 | A23U U70G | 0.647
64 | A24G A41C | 0.743
65 | A23G G32A | 0.0936
66 | A22G U53G | 0.936
67 | A23U U58G | 0.663
68 | A23U U58C | 1.05
69 | A23C A47C | 0.417
70 | A23C A47U | 0.0967
71 | A24C A64U | 0.172
72 | A23U A45G | 0.129

Row | Variant | self-cleavage
73 | A24G G29U | 0.0932
74 | A24G G29C | 0.174
75 | A24G G56A | 0.187
76 | A23U A24G | 0.587
77 | A22U C65G | 0.266
78 | A22U C65A | 0.903
79 | A22U C65U | 0.229
80 | A23G A71C | 1.37
81 | A23U A31U | 0.166
82 | A23U A35U | 0.754
83 | A23C G54U | 0.7
84 | A23C G54A | 0.416
85 | A24C G51C | 0.77
86 | A24C G51A | 0.932
87 | A23C G69U | 0.297
88 | A22G G40U | 0.181
89 | A24C C66G | 0.0731
90 | A24C C66A | 0.187
91 | A22U A30U | 0.262
92 | A24C U67C | 0.208
93 | A23G C65A | 0.667
94 | A23G A36G | 0.933
95 | A23G A36U | 0.514
96 | A24G A71C | 1.4

Row | Variant | self-cleavage
97 | A22U G40C | 0.122
98 | A24C U60G | 0.609
99 | A24C U60C | 0.972
100 | A24C U60A | 0.76
101 | A23G G34A | 1.12
102 | A24G C65U | 0.371
103 | A24G C65A | 0.706
104 | A23U G29C | 0.145
105 | A23U A41U | 1.07
106 | A24G C50U | 0.371
107 | A24G C50G | 0.136
108 | A24G G68U | 0.273
109 | A24G G68C | 0.232
110 | A22U A41C | 0.87
111 | A23U G25U | 0.216
112 | A23U G25C | 0.132
113 | A23U G25A | 0.186
114 | A23C U62C | 0.206
115 | A22G G51U | 0.957
116 | A22G G51A | 1.05
117 | A24G A26G | 0.569
118 | A24G A26U | 0.661
119 | A24G A26C | 0.367
120 | A23C C37U | 0.444

Row | Variant | self-cleavage
121 | A24C U70G | 0.666
122 | A24C U70C | 0.778
123 | A24G A47U | 0.0569
124 | A23U A28U | 0.674
125 | A23U A28C | 0.613
126 | A23U C48U | 0.118
127 | A24C A39G | 0.28
128 | A23G A30C | 0.115
129 | A23G A30U | 0.181
130 | A23U G40A | 0.309
131 | A23G U62A | 0.116
132 | A22G G54C | 0.35
133 | A23C A61G | 0.161
134 | A23C A61U | 0.204
135 | A22G G42A | 0.143
136 | A23C G40U | 0.175
137 | A23C G40A | 0.342
138 | A22U | 0.864
139 | A23U G56C | 0.174
140 | A24G G69A | 0.392
141 | A22G U60A | 0.949
142 | A22U C46A | 0.187
143 | A24G A61G | 0.254
144 | A22U U33G | 0.174

Row | Variant | self-cleavage
145 | A22G G56C | 0.137
146 | A24C A31C | 0.209
147 | A24C A31U | 0.107
148 | A24C U63A | 0.0496
149 | A24C U63G | 0.0877
150 | A22U A49G | 0.488
151 | A22U A49C | 0.146
152 | A24G A39C | 0.384
153 | A23C U58C | 0.821
154 | A23C U58A | 0.49
155 | A24G C46U | 0.0984
156 | A22U G57A | 0.121
157 | A22U G57C | 0.175
158 | A22G G34A | 0.987
159 | A22G G34C | 1.52
160 | A22G G34U | 1.22
161 | A23C A39C | 0.517
162 | A22U G42U | 0.369
163 | A23C U63C | 0.136
164 | A23U C65A | 0.752
165 | A23U C65U | 0.402
166 | A23G C50A | 0.218
167 | A23C G56C | 0.191
